# Paper PMC2879712 (Journal of cellular biochemistry, 2010)
# Where two headings read alike, the source gives them in different places.
# T1: mAbGB3.1-enriched bovine RAGE (bovine, UniProt Q28173 23-416, N-glycans enriched for carboxylated glycans)
# T1 sequence (looked up): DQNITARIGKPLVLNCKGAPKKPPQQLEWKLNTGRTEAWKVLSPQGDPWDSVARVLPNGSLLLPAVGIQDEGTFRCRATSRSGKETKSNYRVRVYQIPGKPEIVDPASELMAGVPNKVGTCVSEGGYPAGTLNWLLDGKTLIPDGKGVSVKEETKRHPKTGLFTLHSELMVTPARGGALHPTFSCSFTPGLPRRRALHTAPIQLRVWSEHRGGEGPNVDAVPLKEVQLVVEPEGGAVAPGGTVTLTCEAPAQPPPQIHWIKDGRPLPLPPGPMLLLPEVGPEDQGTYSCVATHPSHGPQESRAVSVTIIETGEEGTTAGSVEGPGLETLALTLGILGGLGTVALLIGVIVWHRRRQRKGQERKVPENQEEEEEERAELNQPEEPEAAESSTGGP
# T2: total bovine lung RAGE (bovine, UniProt Q28173 23-416, N-glycans (native glycosylation))
# T2 sequence (looked up): T1 sequence (looked up)
# B1: recombinant human S100A12 (ligand, UniProt P80511 1-92, looked up)
# chain: MTKLEEHLEGIVNIFHQYSVRKGHFDTLSKGELKQLLTKELANTIKNIKDKAVIDEIFQGLDANQDEQVDFQEFISLVAIALKAAHYHTHKE
# B2: purified human S100A11 (ligand, UniProt P31949 1-105, looked up)
# chain: MAKISSPTETERCIESLIAVFQKYAGKDGYNYTLSKTEFLSFMNTELAAFTKNQKDPGVLDRMMKKLDTNSDGQLDFSEFLNLIGGLAMACHDSFLKAVPSQKRT
# Columns and labels:
# [1] = molecular target: RAGE C1 domain (Homo sapiens) (UniProt Q15109); conditions: cited from earlier work
# [2] = molecular target: RAGE V-domain (Mus musculus) (UniProt Q62151); conditions: cited from earlier work
# [3] = molecular target: sRAGE-Fc sRAGE (Homo sapiens) (UniProt Q15109); conditions: cited from earlier work
# RAGE (Bos taurus) [4] = molecular target: RAGE (Bos taurus) (UniProt Q28173); conditions: cited from earlier work
# RAGE (Bos taurus) [5] = molecular target: RAGE (Bos taurus) (UniProt Q28173); conditions: cited from earlier work; remark: listed apart in the source
# [6] = molecular target: His-tagged human sRAGE expressed in HeLa cells (human, UniProt Q15109 23-342, N-glycans at N25 and N81); assay: ELISA
# [7] = molecular target: His-tagged human sRAGE expressed in H4 cells (human, UniProt Q15109 23-342, N-glycans); assay: ELISA
# [8] = molecular target: His-tagged human sRAGE expressed in HEK293 cells (human, UniProt Q15109 23-342, N-glycans); assay: ELISA
# [9] = molecular target: His-tagged human sRAGE expressed in HL60 cells (human, UniProt Q15109 23-342, N-glycans); assay: ELISA
# [10] = molecular target: His-tagged human sRAGE expressed in U373 cells (human, UniProt Q15109 23-342, N-glycans); assay: ELISA
# [11] = molecular target: T1, mAbGB3.1-enriched bovine RAGE; assay: ELISA
# total bovine lung RAGE = molecular target: T2, total bovine lung RAGE; assay: ELISA
# Sequence of His-tagged human sRAGE expressed in U373 cells (Q15109 23-342): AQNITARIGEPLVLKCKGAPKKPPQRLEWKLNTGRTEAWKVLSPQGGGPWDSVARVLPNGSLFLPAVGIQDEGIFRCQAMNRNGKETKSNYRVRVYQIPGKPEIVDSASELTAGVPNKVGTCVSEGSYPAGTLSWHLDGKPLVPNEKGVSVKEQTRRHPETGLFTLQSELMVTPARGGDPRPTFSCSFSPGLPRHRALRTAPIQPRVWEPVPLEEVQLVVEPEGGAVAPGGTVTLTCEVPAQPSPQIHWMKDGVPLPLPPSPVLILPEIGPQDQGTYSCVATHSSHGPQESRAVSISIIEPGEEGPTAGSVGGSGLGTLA
# Sequence of His-tagged human sRAGE expressed in HeLa cells (Q15109 23-342): as above
# Sequence of His-tagged human sRAGE expressed in HL60 cells (Q15109 23-342): as above
# Sequence of sRAGE-Fc sRAGE (Homo sapiens) (Q15109 23-342): as above
# Sequence of His-tagged human sRAGE expressed in HEK293 cells (Q15109 23-342): as above
# Sequence of His-tagged human sRAGE expressed in H4 cells (Q15109 23-342): as above
# Sequence of RAGE C1 domain (Homo sapiens) (Q15109 124-221): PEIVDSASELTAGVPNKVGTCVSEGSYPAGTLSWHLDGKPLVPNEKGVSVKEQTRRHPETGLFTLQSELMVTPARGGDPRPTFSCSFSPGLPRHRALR
# Sequence of RAGE V-domain (Mus musculus) (Q62151 23-109): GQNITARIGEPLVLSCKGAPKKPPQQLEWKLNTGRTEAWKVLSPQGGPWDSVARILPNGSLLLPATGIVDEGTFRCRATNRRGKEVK
molecule,measurement,setting,value
S100A12 (from UniProt P80511),Kd,[1],0.09 µM
same,Kd,[2],0.09 µM
same,Kd,[3],0.08 µM
S100A8/A9 (from UniProt P05109),Kd,RAGE (Bos taurus) [4],0.00762 µM
same,Kd,RAGE (Bos taurus) [5],0.0344 µM
B1,binding result,[6],binds
same,binding result,[7],binds
same,binding result,[8],binds
same,binding result,[9],binds
same,binding result,[10],binds
same,Kd,[11],0.133 ± 0.0464 µM
same,Kd,total bovine lung RAGE,0.0518 ± 0.0206 µM
B2,Kd,[11],0.0309 ± 0.0036 µM
same,Kd,total bovine lung RAGE,0.0531 ± 0.0078 µM
